Laboratory results reported in patent US20220096653A1, “CONJUGATE COMPRISING LIGAND AND CEACAM5 ANTIBODY FAB FRAGMENT” (ASTELLAS PHARMA INC., priority 2019, published 2022).

T1: CEACAM5 (R&D Systems, 4128-CM-050) (human, UniProt P06731 35-685)
T1 construct: Immobilised on the ELISA plate; also called human CEACAM5
T1 sequence (looked up): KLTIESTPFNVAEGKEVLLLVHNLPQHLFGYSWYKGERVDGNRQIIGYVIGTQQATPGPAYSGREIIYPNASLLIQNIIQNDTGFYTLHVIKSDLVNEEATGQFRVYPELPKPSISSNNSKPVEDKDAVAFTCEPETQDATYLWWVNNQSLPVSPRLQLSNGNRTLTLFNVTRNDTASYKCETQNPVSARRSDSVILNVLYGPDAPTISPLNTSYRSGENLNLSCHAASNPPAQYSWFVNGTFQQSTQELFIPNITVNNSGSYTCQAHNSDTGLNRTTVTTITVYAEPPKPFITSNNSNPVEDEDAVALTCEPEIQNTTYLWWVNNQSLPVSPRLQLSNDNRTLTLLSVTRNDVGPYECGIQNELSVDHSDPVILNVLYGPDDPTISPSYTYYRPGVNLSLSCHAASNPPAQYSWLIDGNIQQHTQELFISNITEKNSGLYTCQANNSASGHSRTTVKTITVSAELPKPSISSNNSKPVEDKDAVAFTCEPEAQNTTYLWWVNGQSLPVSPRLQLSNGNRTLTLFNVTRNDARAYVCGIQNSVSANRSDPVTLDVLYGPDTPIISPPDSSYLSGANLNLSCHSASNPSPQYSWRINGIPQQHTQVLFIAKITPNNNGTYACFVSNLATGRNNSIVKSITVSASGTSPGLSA

B1: (Y-S1-X)p-Fab^2 with Y Gd/DOTA, S1 -NH-CH2-(1,3-Ph)-C(═O)-, X -Gly-Lys*-Z2(#S)- (Fab, V domains shown)
VH: EVQLVESGGGLVQPGGSLRLSCAASGFNIRDTYMHWVRQAPGKGLEWVARIDPANGNSRYVPKFQGRFTISADTSRNTAYLQMNSLRAEDTAVYYCAPFGYYVSDYAMAYWGQGTLVTVSS
VL: DIQLTQSPSSLSASVGDRVTITCRAGESVDIFGVGFLHWYQQKPGKAPKLLIYRASNLESGIPSRFSGSGSRTDFTLTISSLQPEDFATYYCQQTNEDPYTFGQGTKVEIKR
modifications: labeling may sit on this chain; sites not stated; labeling portion (MW 1059) on amino groups of the Fab, sites and chain not stated; 1-2 per Fab by MS
notes: also called Ex-No 6; conjugate 6
B2: (Y-S1-X)p-Fab^2 with Y Gd/DOTA, S1 - (bond), X -Gly-Tyr-Lys*-Z2(#N)- (Fab, V domains shown)
VH: EVQLVESGGGLVQPGGSLRLSCAASGFNIRDTYMHWVRQAPGKGLEWVARIDPANGNSRYVPKFQGRFTISADTSRNTAYLQMNSLRAEDTAVYYCAPFGYYVSDYAMAYWGQGTLVTVSS
VL: DIQLTQSPSSLSASVGDRVTITCRAGESVDIFGVGFLHWYQQKPGKAPKLLIYRASNLESGIPSRFSGSGSRTDFTLTISSLQPEDFATYYCQQTNEDPYTFGQGTKVEIKR
modifications: labeling may sit on this chain; sites not stated; labeling portion (MW 988) on amino groups of the Fab, sites and chain not stated; 1-4 per Fab by MS
notes: also called Ex-No 19; conjugate 19
B3: (Y-S1-X)p-Fab^2 with Y Gd/DOTA, S1 - (bond), X -Met-Ile-Lys*-Z2(#N)- (Fab, V domains shown)
VH: EVQLVESGGGLVQPGGSLRLSCAASGFNIRDTYMHWVRQAPGKGLEWVARIDPANGNSRYVPKFQGRFTISADTSRNTAYLQMNSLRAEDTAVYYCAPFGYYVSDYAMAYWGQGTLVTVSS
VL: DIQLTQSPSSLSASVGDRVTITCRAGESVDIFGVGFLHWYQQKPGKAPKLLIYRASNLESGIPSRFSGSGSRTDFTLTISSLQPEDFATYYCQQTNEDPYTFGQGTKVEIKR
modifications: labeling may sit on this chain; sites not stated; labeling portion (MW 1012) on amino groups of the Fab, sites and chain not stated; 1-2 per Fab by MS
notes: also called Ex-No 10; conjugate 10
B4: (Y-S1-X)p-Fab^2 with Y Gd/DOTA, S1 - (bond), X -Met-Ile-NH-(CH2)2-Z1(#S)- (Fab, V domains shown)
VH: EVQLVESGGGLVQPGGSLRLSCAASGFNIRDTYMHWVRQAPGKGLEWVARIDPANGNSRYVPKFQGRFTISADTSRNTAYLQMNSLRAEDTAVYYCAPFGYYVSDYAMAYWGQGTLVTVSS
VL: DIQLTQSPSSLSASVGDRVTITCRAGESVDIFGVGFLHWYQQKPGKAPKLLIYRASNLESGIPSRFSGSGSRTDFTLTISSLQPEDFATYYCQQTNEDPYTFGQGTKVEIKR
modifications: labeling may sit on this chain; sites not stated; labeling portion (MW 1027) on amino groups of the Fab, sites and chain not stated; 1-2 per Fab by MS
notes: also called Ex-No 8; conjugate 8
B5: [Gd/DOTA-NH-CH2-(1,3-Ph)-C(═O)-Asp-Gly-Lys*-Z2(#N)]p-Fab^2 (Fab, V domains shown)
VH: EVQLVESGGGLVQPGGSLRLSCAASGFNIRDTYMHWVRQAPGKGLEWVARIDPANGNSRYVPKFQGRFTISADTSRNTAYLQMNSLRAEDTAVYYCAPFGYYVSDYAMAYWGQGTLVTVSS
VL: DIQLTQSPSSLSASVGDRVTITCRAGESVDIFGVGFLHWYQQKPGKAPKLLIYRASNLESGIPSRFSGSGSRTDFTLTISSLQPEDFATYYCQQTNEDPYTFGQGTKVEIKR
modifications: labeling may sit on this chain; sites not stated; labeling portion (MW 1073) on amino groups of the Fab, sites and chain not stated; 1-3 per Fab by MS
notes: also called Ex-No 11; Conjugate No. 11
B6: (Y-S1-X)p-Fab^2 with Y Gd/DOTA, S1 -NH-CH2-(1,3-Ph)-C(═O)-, X -Gly-Lys*-Z2(#N)- (Fab, V domains shown)
VH: EVQLVESGGGLVQPGGSLRLSCAASGFNIRDTYMHWVRQAPGKGLEWVARIDPANGNSRYVPKFQGRFTISADTSRNTAYLQMNSLRAEDTAVYYCAPFGYYVSDYAMAYWGQGTLVTVSS
VL: DIQLTQSPSSLSASVGDRVTITCRAGESVDIFGVGFLHWYQQKPGKAPKLLIYRASNLESGIPSRFSGSGSRTDFTLTISSLQPEDFATYYCQQTNEDPYTFGQGTKVEIKR
modifications: labeling may sit on this chain; sites not stated; labeling portion (MW 958) on amino groups of the Fab, sites and chain not stated; 1-3 per Fab by MS
notes: also called Ex-No 9; conjugate 9
B7: [Gd/DOTA-NH-CH2-(1,4-Ph)-NH-C(═O)-Met-Ile-NH-(CH2)2-Z1(#N)]p-Fab^2 (Fab, V domains shown)
VH: EVQLVESGGGLVQPGGSLRLSCAASGFNIRDTYMHWVRQAPGKGLEWVARIDPANGNSRYVPKFQGRFTISADTSRNTAYLQMNSLRAEDTAVYYCAPFGYYVSDYAMAYWGQGTLVTVSS
VL: DIQLTQSPSSLSASVGDRVTITCRAGESVDIFGVGFLHWYQQKPGKAPKLLIYRASNLESGIPSRFSGSGSRTDFTLTISSLQPEDFATYYCQQTNEDPYTFGQGTKVEIKR
modifications: labeling may sit on this chain; sites not stated; labeling portion (MW 1074) on amino groups of the Fab, sites and chain not stated; 1-3 per Fab by MS
notes: also called Ex-No 18; Conjugate No. 18
B8: (Y-S1-X)p-Fab^2 with Y Gd/DOTA, S1 - (bond), X -Gly-Lys*-Z2(#N)- (Fab, V domains shown)
VH: EVQLVESGGGLVQPGGSLRLSCAASGFNIRDTYMHWVRQAPGKGLEWVARIDPANGNSRYVPKFQGRFTISADTSRNTAYLQMNSLRAEDTAVYYCAPFGYYVSDYAMAYWGQGTLVTVSS
VL: DIQLTQSPSSLSASVGDRVTITCRAGESVDIFGVGFLHWYQQKPGKAPKLLIYRASNLESGIPSRFSGSGSRTDFTLTISSLQPEDFATYYCQQTNEDPYTFGQGTKVEIKR
modifications: labeling may sit on this chain; sites not stated; labeling portion (MW 825) on amino groups of the Fab, sites and chain not stated; 1-3 per Fab by MS
notes: also called Ex-No 20; conjugate 20

Biological target: T1, CEACAM5 (R&D Systems, 4128-CM-050)
Test: ELISA on immobilised CEACAM5, 4-parameter fit, duplicate
Protocol: Each anti-human CEACAM5 antibody Fab fragment conjugate prepared in Example 2 was subjected to ELISA to evaluate the binding activity thereof to CEACAM5. In the present test, a phosphate buffer (Nacalai Tesque Inc., 0.1 mol/L-Phosphate Buffer Solution (pH 7.2)) prepared to 10 mM by diluting 10-fold with distilled water was used as a solvent for an antigen immobilization liquid, and 20×PBS/Tween 20 Buffer (Thermo Fisher Scientific Inc., 28352) diluted 20-fold with distilled water was used as a wash liquid. In addition, for bovine serum albumin (BSA) used in the present test, 30% Bovine Serum Albumin solution (Sigma-Aldrich, Inc., A9576-50ML) was added in an appropriate proportion for use. CEACAM5 (R&D Systems, 4128-CM-050) was diluted with a 10 mM phosphate buffer (pH 7.2) to 0.1 μg/mL, and added to a Nunc MaxiSorp White 384 plate (Nunc, 4603272) at 30 μL per well, and the plate was incubated overnight at 4° C. for immobilization. The CEACAM5 immobilization liquid was removed by reverse centrifugation, and then blocking was carried out by adding a PBS/Tween 20 buffer containing 5.0% BSA. Thereafter, the blocking solution was removed by reverse centrifugation, a solution of each CEACAM5 antibody Fab² fragment conjugate described above or a Fab² fragment having no labeling portion (PB009-01) as a control at about 10000 ng/mL was diluted in 14 steps by 3-fold dilution using a PBS/Tween 20 buffer containing 1.0% BSA, and 30 μL was added per well and incubated at room temperature for 60 minutes. The plate was washed 3 times with a PBS/Tween 20 buffer, and Horseradish Peroxidase (HRP)-labeled goat anti-human IgG (H+L chain) antibody (MBL Life Sciences, 206) diluted 1000-fold using a PBS/Tween 20 buffer containing 5.0% BSA was added at 30 μL per well and incubated at room temperature for 30 minutes. The plate was washed 3 times with a PBS/Tween 20 buffer, and ECL Prime Western Blotting DETECTION Reagent (GE Healthcare, RPN2232) as a substrate was added at 30 μL per well. The substrate was incubated at room temperature for 15 minutes, and then a signal value thereof was measured using an Envision counter (PerkinElmer, Inc.).
The test for each antibody was carried out in duplicate, and an EC₅₀ value was calculated using a 4-parameter logistic curve model.

Binder | EC50
B1 | 0.14 nM
B2 | 0.26 nM
B3 | 0.11 nM
B4 | 0.11 nM
B5 | 0.14 nM
B6 | 0.1 nM
B7 | 0.24 nM
B8 | 0.22 nM
